For assay [1], the target named is T1, recombinant human IL-1α (human, UniProt P01583 113-271).
T1 sequence (looked up): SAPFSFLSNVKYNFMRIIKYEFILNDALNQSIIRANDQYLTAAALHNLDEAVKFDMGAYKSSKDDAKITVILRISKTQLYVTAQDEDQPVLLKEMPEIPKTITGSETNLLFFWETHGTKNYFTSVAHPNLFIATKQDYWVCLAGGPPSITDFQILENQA
In words: cell-based or functional assay.

The target in assay [2] is T1, recombinant human IL-1α. In words: SPR (Biacore); end of the range tied to DVD1-Ig by the Kd values of Table 13. Here is the method: The kinetics of DVD-Ig binding to rhIL1-α and rhIL1-β was determined by surface plasmon resonance-based measurements with a Biacore 3000 instrument (Biacore AB, Uppsala, Sweden) using HBS-EP (10 mM HEPES, pH 7.4, 150 mM NaCl, 3 mM EDTA, and 0.005% surfactant P20) at 25° C. All chemicals were obtained from Biacore AB (Uppsala, Sweden) or otherwise from a different source as described herein. Approximately, 5000 RU of goat anti-human IgG Fcγ fragment specific polyclonal antibody (Pierce Biotechnology Inc, Rockford, Ill.) diluted in 10 mM sodium acetate (pH 4.5) was directly immobilized across a CM5 research grade biosensor chip using a standard amine coupling kit according to manufacturer's instructions and procedures at […]. Unreacted moieties on the biosensor surface were blocked with ethanolamine. Modified carboxymethyl dextran surface in flowcell 2 and 4 was used as a reaction surface. Unmodified carboxymethyl dextran without goat anti-human IgG in flow cell 1 and 3 was used as the reference surface. […] The association and dissociation rate constants, kon (M-1s-1) and koff (s-1) were determined under a continuous flow rate of […]. […] The equilibrium dissociation constant (M) of the reaction between DVD-Ig and rhIL1α/β was then calculated from the kinetic rate constants by the following formula: KD=koff/kon. […]
For orientation: SPR reads the build-up and loss of mass on a sensor chip optically.

Assay [3] addresses T1, recombinant human IL-1α. The experiment in a line: cell-based or functional assay. The source holds these as a separate data set.
A further assay addresses recombinant human IL-1β (human, UniProt P01584 117-269). The experiment in a line: cell-based or functional assay.
Assay [4] addresses T2, human IL-12 (human, UniProt P29459 23-219; P29460 23-328).
T2 construct: also called hIL-12
T2 sequence (looked up) 1: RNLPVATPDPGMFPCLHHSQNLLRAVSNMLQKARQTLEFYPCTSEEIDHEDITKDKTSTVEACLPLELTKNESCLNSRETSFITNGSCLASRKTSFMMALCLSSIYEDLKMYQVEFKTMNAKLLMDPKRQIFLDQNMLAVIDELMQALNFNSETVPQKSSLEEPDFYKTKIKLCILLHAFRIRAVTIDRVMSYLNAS
T2 sequence (looked up) 2: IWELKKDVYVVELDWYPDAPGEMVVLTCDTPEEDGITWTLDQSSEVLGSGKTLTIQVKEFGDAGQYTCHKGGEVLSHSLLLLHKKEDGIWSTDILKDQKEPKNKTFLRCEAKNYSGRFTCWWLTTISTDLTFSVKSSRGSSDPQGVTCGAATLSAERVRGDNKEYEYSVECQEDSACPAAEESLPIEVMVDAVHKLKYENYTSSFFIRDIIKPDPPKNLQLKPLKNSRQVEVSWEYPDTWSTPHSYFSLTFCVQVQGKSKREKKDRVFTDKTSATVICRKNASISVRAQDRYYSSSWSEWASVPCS
The experiment in a line: SPR (Biacore).

For assay [5], the target named is T3, human IL-18 (human, UniProt Q14116 37-193).
T3 construct: also called hIL-18
In words: SPR (Biacore).

The target in assay [6] is T2, human IL-12. The experiment in a line: cell-based or functional assay.
For assay [7], the target named is T3, human IL-18. In words: cell-based or functional assay.

B1: hIL-1a/bDVD1-Ig (bispecific antibody, human IgG1, kappa)
heavy: not shown
light: NIVLTQSPASLAVSLGQRATISCRASESVDSYGNSYMHWYQQKPGQPPKLLIYLASNLESGVPARFSGSGSRTDFTLTIDPVEADDAATYYCQQNNEDPFTFGSGTKLEIKRNIQMTQTTSSLSASLGDRVTISCRASQDISNCLNWYQQKPDGTVKLLIYYTSRLHSGVPSRFSGSGSGTDYSLTISNLEQEDIATYFCQQGKTLPYAFGGGTKLEINRRTVAAPSVFIFPPSDEQLKSGTASVVCLLNNFYPREAKVQWKVDNALQSGNSQESVTEQDSKDSTYSLSSTLTLSKADYEKHKVYACEVTHQGLSSPVTKSFNRGEC
notes: 13F5.G5 V domains fused directly (no linker) to the N-terminus of 3D12.E3 V domains; human Cγ1/Cκ; also called hIL-1α/βDVD1-Ig
Regarding B1, in the assay with recombinant human IL-1α [1], the “neutralizing activity, MRC-5 bioassay, fold less than the chimeric Abs” value is 3 fold. Besides, in the assay with recombinant human IL-1α [2], the “fold lower affinity than the chimeric 3D12.E3 Ab” value fell in the range of 2 to 3 fold.

B2: hIL-1a/bDVD6a-Ig (bispecific antibody, human IgG1, kappa)
heavy: not shown
light: QIVLTQSPALMSASPGEKVTMTCSASSSVNYMYWYQQKPRSSPKPWIYLTSNLASGVPARFSGSGSGTSYSLTISSMEAEDAATYYCQQWNSNPYTFGGGTKLEMKRTVAAPSVFIFPPQIVLTQSPAIMSASPGEKVTITCSASSSVSYMHWFQQKPGASPKLWIYSTSNLASGVPARFSGSGSGTSYSLTVSRMEAEDAATYYCQQRSTYPYTFGGGTKLEIKRRTVAAPSVFIFPPSDEQLKSGTASVVCLLNNFYPREAKVQWKVDNALQSGNSQESVTEQDSKDSTYSLSSTLTLSKADYEKHKVYACEVTHQGLSSPVTKSFNRGEC
B2: the “Potency (IC50) M, IL-1α, MRC-5 bioassay” value in the assay with recombinant human IL-1α [3] amounted to 2.3 nM. For the same molecule, the “Potency (IC50) M, IL-1β, MRC-5 bioassay” value with recombinant human IL-1β came out at 70 nM.

B3: hIL-1a/bDVD3a-Ig (bispecific antibody, human IgG1, kappa)
heavy: not shown
light: DIVMTQSQRFMSTSVGDRVSVTCKASQNVGTNIAWYQQKPGQSPRALIYSASYRYSGVPDRFTGSGSGTDFTLTISNVQSVDLAEYFCQQYTRYPLTFGGGTKLEIKRTVAAPETTVTQSPASLSMAIGEKVTIRCITSTDIDVDMNWYQQKPGEPPKLLISQGNTLRPGVPSRFSSSGSGTDFVFIIENMLSEDVADYYCLQSDNLPLTFGAGTKLELKRRTVAAPSVFIFPPSDEQLKSGTASVVCLLNNFYPREAKVQWKVDNALQSGNSQESVTEQDSKDSTYSLSSTLTLSKADYEKHKVYACEVTHQGLSSPVTKSFNRGEC
Consider B3, for which the “Potency (IC50) M, IL-1α, MRC-5 bioassay” value in the assay with recombinant human IL-1α [3] was found to be 0.75 nM.

B4: DVD1812LL (anti-IL-18/IL-12 DVD-Ig, 18-12-C, long linker) (bispecific antibody)
heavy: EVQLVQSGTEVKKPGESLKISCKGSGYTVTSYWIGWVRQMPGKGLEWMGFIYPGDSETRYSPTFQGQVTISADKSFNTAFLQWSSLKASDTAMYYCARVGSGWYPYTFDIWGQGTMVTVSSASTKGPSVFPLAPQVQLVESGGGVVQPGRSLRLSCAASGFTFSSYGMHWVRQAPGKGLEWVAFIRYDGSNKYYADSVKGRFTISRDNSKNTLYLQMNSLRAEDTAVYYCKTHGSHDNWGQGTMVTVSS
light: EIVMTQSPATLSVSPGERATLSCRASESISSNLAWYQQKPGQAPRLFIYTASTRATDIPARFSGSGSGTEFTLTISSLQSEDFAVYYCQQYNNWPSITFGQGTRLEIKRTVAAPSVFIFPPQSVLTQPPSVSGAPGQRVTISCSGSRSNIGSNTVKWYQQLPGTAPKLLIYYNDQRPSGVPDRFSGSKSGTSASLAITGLQAEDEADYYCQSYDRYTHPALLFGTGTKVTVLG
notes: see recheck on the constant domain of the DVD1812 light chains; also called DVD1812HC-LL/DVD1812LC-LL
For B4, the Kd in the assay with human IL-12 [4] is 0.113 nM; in the assay with human IL-18 [5], 0.162 nM. Moreover, the “Potency (IC50, M), IL-12, PHA blast / PBMC assay” value with human IL-12 [6] is 1.18e-10 M. Besides, in the assay with human IL-18 [7], the “Potency (IC50, M), IL-18, KG-1 bioassay” value is 7.8e-11 M.

B5: hIL-1a/bDVD6b-Ig (bispecific antibody, human IgG1, kappa)
heavy: not shown
light: QIVLTQSPAIMSASPGEKVTITCSASSSVSYMHWFQQKPGASPKLWIYSTSNLASGVPARFSGSGSGTSYSLTVSRMEAEDAATYYCQQRSTYPYTFGGGTKLEIKRTVAAPSVFIFPPQIVLTQSPALMSASPGEKVTMTCSASSSVNYMYWYQQKPRSSPKPWIYLTSNLASGVPARFSGSGSGTSYSLTISSMEAEDAATYYCQQWNSNPYTFGGGTKLEMKRRTVAAPSVFIFPPSDEQLKSGTASVVCLLNNFYPREAKVQWKVDNALQSGNSQESVTEQDSKDSTYSLSSTLTLSKADYEKHKVYACEVTHQGLSSPVTKSFNRGEC
For the molecule B5, the “Potency (IC50) M, IL-1α, MRC-5 bioassay” value with recombinant human IL-1α [3] worked out at 1 nM. Besides, the “Potency (IC50) M, IL-1β, MRC-5 bioassay” value with recombinant human IL-1β was 0.75 nM.

The Kd is a measure of binding affinity in units of concentration. The low end stands for tighter binding, the high end for weaker binding.

The values above are taken from patent US20070071675A1 (AbbVie / Abbott, published 2007).
